Molecular target: BG505 SOSIP.664 Env trimer (HIV-1 (BG505))
Assay: BLI; biotinylated BG505 SOSIP.664 trimer (10 µg/mL) captured on Streptavidin biosensors; ScFv in 2-fold dilution series starting at 500 nM; 1:1 binding model, global fit; KD = koff/kon

Q: VRC01 ScFv (parental ScFv) was tested. Which Kd did it give?
A: < 1 pM

Q: And the koff?
A: < 1e-07 s⁻¹

— article PMC5830440
